Data published in US20070134248A1 (GENITOPE, published 2007).
Blank lines part the entries; values can stand above or below the binder they belong to.

How the values were obtained:
647 = target: T1, 647; experiment: ELISA
T1 construct: immunogen of fusion 17; also called PIN647; PIN647 fully human Id protein (HV3-48 / LV2-14)
Text: (§1) Before specificity screening, all of the clonal immunogen-positive hybridoma supernatants were re-screened on the immunogen, a non-family member Id protein, and KLH, if animals were immunized with Id protein that has been conjugated KLH. As described above, this screen identifies HC-specific clones but not mAbs against the light chain constant region. Clones identified positive to the immunogen and KLH were […]. Those found positive to the immunogen but not to the non-family member Id protein or KLH were tittered on the immunogen. In addition to normalizing for different binding affinities and concentrations, each hybridoma supernatant was titered on the fully human form of the Id protein used as the immunogen(s) for the V regions. The titer or dilution resulting in an ELISA absorbance of 2.5 to 3 OD after 30 min. incubation time was then used. Hybridoma specificity was determined by screening against available Id proteins expressing the same HV and KV or LV as well as different HV, KV and LV. The final ELISA results are expressed as follows: 0 (<0.5 OD),1 (0.5-1.0 OD), or 4 (1-4 OD). Positive hybridoma supernatants are categorized according to specificity: anti-Id, anti-constant region (HC, KC or LC), or V region (HV, KV, LV family or family member).
(§2) In general, the fully human Id protein or proteins containing the immunogen V regions were coated onto 96-well ELISA plates at 2.5-5 ug/mL in carbonate buffer pH 9.6 and incubated at 4° C. for up to 14 days. On the day of the ELISA, plates were brought to RT and blocked with Tris-Tween-20, pH 7.6 for 15-60 min. at RT. Following a NaCl and Triton X-100 wash, diluted hybridoma cell culture supernatants were incubated overnight at 4° C. Hybridoma supernatant dilutions ranged from 1:2 to 1:25 and were prepared in PBS with 5% BSA. Plates were washed and incubated with HRP-conjugated goat anti-mouse IgG-specific detecting antibody. A chromogenic substrate (TMB) was used to measure the amount of mouse antibody bound to each well. The reaction was stopped at or before 30 minutes with IN H2SO4 and plates were read immediately. Absorbency readings at 450 nm ranging between 0-4 OD and using Molecular Devices plate reader and SOFTMAX PRO software.

116 = target: T2, 116; experiment: ELISA
T2 construct: immunogen of fusions 15, 16 and 18; coated in its fully human form; also called PIN116; PIN116 fully human Id protein (HV1-46 / LV2-8)
T2 sequence (VH, as listed by the source, chain 1 of 2): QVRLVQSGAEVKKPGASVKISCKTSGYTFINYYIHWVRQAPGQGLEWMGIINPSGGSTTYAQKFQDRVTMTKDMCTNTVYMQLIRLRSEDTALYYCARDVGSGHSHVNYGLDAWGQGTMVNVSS
T2 sequence (V domain, as listed by the source, chain 2 of 2): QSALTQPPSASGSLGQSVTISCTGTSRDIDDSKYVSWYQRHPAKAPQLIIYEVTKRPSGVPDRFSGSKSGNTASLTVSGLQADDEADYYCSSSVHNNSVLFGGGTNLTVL
Text: as §1, §2

662 = target: T3, 662; experiment: ELISA
T3 construct: also called PIN662; PIN662 fully human Id protein (HV3-48 / LV2-8)
T3 sequence (heavy, as listed by the source): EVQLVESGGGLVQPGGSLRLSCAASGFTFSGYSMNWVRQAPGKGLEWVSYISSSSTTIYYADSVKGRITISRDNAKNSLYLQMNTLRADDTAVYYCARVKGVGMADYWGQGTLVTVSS
Text: as §1, §2

[1] = target: T4, PIN574 fully human Id protein (HV4-39 / LV1-40) (human); experiment: ELISA
T4 construct: patient tumour-derived idiotype immunoglobulin used as antigen; fully human form; also called Immunogen (for 20H5); not shown: human immunoglobulin heavy chain constant region, isotype G3 (HCG3); human lambda light chain constant region (LC)
T4 sequence (VH, as listed by the source, chain 1 of 2): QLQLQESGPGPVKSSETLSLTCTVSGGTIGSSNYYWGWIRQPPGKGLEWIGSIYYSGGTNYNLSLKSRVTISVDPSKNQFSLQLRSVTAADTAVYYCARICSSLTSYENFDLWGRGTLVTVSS
T4 sequence (VL, as listed by the source, chain 2 of 2): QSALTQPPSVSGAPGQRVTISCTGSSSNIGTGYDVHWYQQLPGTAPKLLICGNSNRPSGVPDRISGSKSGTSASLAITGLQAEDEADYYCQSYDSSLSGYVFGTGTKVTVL
Text: as §1, §2

[2] = target: T5, PIN149 fully human Id protein (HV3-23 / KV4-1) (human); experiment: SPR (BIACORE 2000), mAb captured on anti-mouse surface, fully human Id protein as analyte
T5 construct: patient tumour-derived idiotype immunoglobulin used as antigen; recombinant, two identical heavy and two identical light chains; also called Immunogen (for 3C9, 6C9, 10H7, 15E1); not shown: human immunoglobulin heavy chain constant region, isotype G3 (HCG3); human kappa light chain constant region (KC)
T5 sequence (VH, as listed by the source, chain 1 of 2): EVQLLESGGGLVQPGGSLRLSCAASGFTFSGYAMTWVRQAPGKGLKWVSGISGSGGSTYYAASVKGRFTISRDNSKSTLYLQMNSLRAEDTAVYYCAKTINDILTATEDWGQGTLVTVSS
T5 sequence (VL, as listed by the source, chain 2 of 2): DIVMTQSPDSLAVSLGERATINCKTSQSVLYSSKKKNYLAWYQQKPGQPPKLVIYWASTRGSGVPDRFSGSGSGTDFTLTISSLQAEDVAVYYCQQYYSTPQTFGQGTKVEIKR
Protocol: (§3) Binding constants were also determined for three of the sequenced clones (3C9, 10H7, and 20H5), as well as for two additional clones (6C9 and 15E1). The association and disassociation rates were measured by surface plasmon resonance using a BIACORE 2000 machine.
(§4) In addition, based on ELISA results, PIN185 was used as a positive control Id protein for 10H7 and 15E1 and a negative control Id protein for 3C9 and 6C9 and PIN149 was used as a non-binding Id protein for 20H5. Each mAb was captured onto an anti-mouse surface and tested for binding to the fully human Id protein. Following the mAb capture phase of the assay for the (@2 ug/ml), the fully human Id proteins were all diluted to a starting concentration of 250 nM and tested in a three fold dilution series. Each concentration was tested in duplicate. The running buffer contained PBS plus 0.005% tween-20 and 0.1 mg/ml BSA as a carrier. Binding data were collected at 25° C. […] The other data sets all fit well to a single site interaction model.

[3] = target: T4, PIN574 fully human Id protein (HV4-39 / …); experiment: SPR (BIACORE 2000), mAb captured on anti-mouse surface, fully human Id protein as analyte, 25 C, single site model
Protocol: as §3, §4

[4] = target: T6, PIN185 fully human Id protein (human); experiment: ELISA
T6 construct: patient idiotype immunoglobulin used as control antigen
Text: as §1, §2

913 = target: T7, 913; experiment: ELISA
T7 construct: also called PIN913; PIN913 fully human Id protein (HV4-59 / KV4-1)
T7 sequence (heavy, as listed by the source): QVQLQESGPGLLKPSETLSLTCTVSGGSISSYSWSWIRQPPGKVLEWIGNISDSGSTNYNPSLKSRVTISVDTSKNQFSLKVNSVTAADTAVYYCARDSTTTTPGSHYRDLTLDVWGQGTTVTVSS
Text: as §1, §2

628 = target: T8, 628; experiment: ELISA
T8 construct: immunogen of fusions 20 and 21; also called PIN628; PIN628 fully human Id protein (HV3-7 / KV4-1)
T8 sequence (VH, as listed by the source, chain 1 of 2): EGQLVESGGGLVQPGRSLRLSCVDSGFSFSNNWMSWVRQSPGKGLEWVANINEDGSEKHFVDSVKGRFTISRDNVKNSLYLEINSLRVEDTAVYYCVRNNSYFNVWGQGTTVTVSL
T8 sequence (VL, as listed by the source, chain 2 of 2): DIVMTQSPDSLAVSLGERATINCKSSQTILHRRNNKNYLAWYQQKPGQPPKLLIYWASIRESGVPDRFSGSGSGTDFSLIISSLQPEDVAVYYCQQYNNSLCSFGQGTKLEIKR
Text: as §1, §2

[5] = target: T5, PIN149 fully human Id protein (HV3-23 / …); experiment: SPR (BIACORE 2000), mAb captured on anti-mouse surface, fully human Id protein as analyte, 25 C, single site model
Protocol: as §3, §4

[6] = target: T5, PIN149 fully human Id protein (HV3-23 / …); experiment: ELISA
Text: as §1, §2

[7] = target: T6, PIN185 fully human Id protein; experiment: SPR (BIACORE 2000), mAb captured on anti-mouse surface, fully human Id protein as analyte, 25 C, single site model
Protocol: as §3, §4

T1 sequence (VH, as listed by the source, chain 1 of 2): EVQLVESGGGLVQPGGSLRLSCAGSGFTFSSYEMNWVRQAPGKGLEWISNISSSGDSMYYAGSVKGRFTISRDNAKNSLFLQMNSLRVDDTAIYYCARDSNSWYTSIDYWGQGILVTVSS
T1 sequence (VL, as listed by the source, chain 2 of 2): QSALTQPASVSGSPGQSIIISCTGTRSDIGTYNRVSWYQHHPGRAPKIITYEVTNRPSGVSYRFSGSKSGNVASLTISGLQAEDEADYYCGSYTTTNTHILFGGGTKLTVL

B3: mAb clone 12C3 (antibody, V domains shown)
VH: EVKLVESGGGLVQPGGSLSLSCAASGFTYTDYYMNWVRQPPGKALEWLALIRNKANGYTTEYSASLKGRFTISRDNSQSILYLQMNALRAEDSATYYCVRENINYYFDYWGQGTTLTVSS
VL: DIVLTQSPASLAVSLGQRATISCRASESVEYFGASLMQWYQQKSGQPPKLLIRAATNVESGVPARFSGSGSGTDFSLNIHPVEEDDIAMYFCQQSRKVPWTFGGGTKLEIKR
notes: mouse hybridoma mAb from fusions 20/21 (PIN628 V regions as immunogen)
ELISA score [4]: 4
ELISA score 913: 4
ELISA score 628: 4

B5: mAb clone 3C9 (antibody, V domains shown)
VH: EVQLQQSGPELEKPGASVKISCKASGYSFTAYNMNWVKQNNGKSLEWIGNIDPYHGGTNYNQKFKGKATLTVDKSSSTAYMQLKSLTSEDYAVYYCARGGGDWSWFAYWGQGTLVTVSA
VL: DIVMTQSHKFMSTSVGDRVSITCKASQDVNTAVAWYQQKPGQSPKVLIYWASNRHTGVPDRFTGSGSGTDYTLTISSMQAEDLALYYCHQHYSTPWTFGGGTKLEIER
Kd [5]: 1.78 nM
koff [5]: 0.000134 s⁻¹
kon [5]: 74900 M⁻¹ s⁻¹

B6: mAb clone 10H7 (antibody, V domains shown)
VH: EVQLVESGGGLVKPGGSLKLSCTASGFTFSSYAMSWVRQSPEKRLEWVAEISSGGIHTYYSDTVTGRFSISRDNAKNSTLYLEMNSLRSEDTAIYYCARETTGTWGQGTLVTVSA
VL: QIVLTQSPAIMSASPGEKVTMTCSVSSSITYMHWFRQKPGTSPKLWIYTTSNLASGVPARFSGSGSGTSYSLTISRMEAEDAATYYCQQRSRYPFTFGSGTKLEIKR
notes: mouse hybridoma mAb from fusion 14 (immunogen PIN149 chimera-KLH)
ELISA score [6]: 4
ELISA score [4]: 4
ELISA score 913: 4
ELISA score 628: 4
Kd [5]: 0.83 nM
koff [5]: 3.8e-05 s⁻¹
kon [5]: 45400 M⁻¹ s⁻¹
Kd [7]: 3 nM
koff [7]: 9.9e-05 s⁻¹
kon [7]: 33200 M⁻¹ s⁻¹

Now from value to binder:

binding result 647: no binding
ELISA score 116: 4
ELISA score 662: 4
binding result [1]: no binding
B1: mAb clone 15E8 (antibody, V domains shown)
VH: QVQLQQPGAELVMPGASVKMSCKASGYTFTDYWMHWVKQRPGQGLEWIGTIDTSDSYTNYNQKFKGKATLTVDESSSTAYMQLSSLTSEDSAVYYCVRWKKYGNYFFDYWGQGTTLTVSS
VL: DIVMTQSHKFMSTSVGDRVSITCKASQDVNTAVAWYQQKPGQSPKLLIYWASTRHTGVPDRFTGSGSGTDFSLTISSVQAEDLGLYYCQQCYSTPYAFGGGTKLEIKR
notes: mouse hybridoma mAb from fusion 16 (immunogen unconjugated fully human PIN116)

binding result [2]: no binding
Kd [3]: 1.92 nM
koff [3]: 0.000146 s⁻¹
kon [3]: 75900 M⁻¹ s⁻¹
B2: mAb clone 20H5 (antibody, V domains shown)
VH: QVQLKESGPDLVAPSQSLSITCTVSGFSLTSYGVHWVRQPPGKGLEWLVVIWSDGSTTNNSPLKSRLSISKDNSKSQVFLKMNSLQTDDTAMYYCARHWGTTVVDAMDYWGQGTSVTVSS
VL: DIQMTQTTSSLSASLGDRVIISCRASQDIRNYLNWYQQKPDGTVKLLIYYTSQLHSGVPSRFSGSGSGTDYSLTINNLSEQEDIATYFCQQYDTLPWTFGGGTKLEIKR
notes: mouse hybridoma mAb from fusion 10 (immunogen fully human PIN574 Id protein)

binding result 116: no binding
ELISA score 662: 4
ELISA score [1]: 4
B4: mAb clone 4H11 (antibody, V domains shown)
VH: EVKLVESGGGLVKPGGSLKLSCAASGFAFSNYDMSWVRQTPEKRLEWVATIRSDDSYTYYPDSVKGRFTISRDNARNTLYLQMSSLRSEDTAFYYCARREGNYAMDYWGQGTSVTVSS
VL: DIQMTQSPASLSVSVGETVTITCRASENIYSYLAWYQQKKGKSPQLLVYAATNLGDGVPTRFSGSGSGTQYSLKINSLQSEDFGSYYCQHFWGNPLTFGAGTKLELKR
notes: mouse hybridoma mAb
